From patent US20040166109A1 (AVENTIS PHARMA S A, published 2004) come the findings set out here.

B1: LexA fusion of the PTB1 domain of the human FE65 protein (amino acids 395 to 543), expressed from pLex-FE65PTB1 (other)
chain: PPRNTNPGIKCFAVRSLGWVEMTEEELAPGRSSVAVNNCIRQLSYHKNNLHDPMSGGWGEGKDLLLQLEDETLKLVEPQSQALLHAQPIISIRVWGVGRDSGRDFAYVARDKLTQMLKCHVFRCEAPAKNIATSLHEICSKIMAERRNA
notes: Two-hybrid bait expressed in yeast strain L40; PTB1 fragment cloned between XmaI and SalI downstream of LexA; also called PTB1 domain of FE65; not shown: LexA protein encoded by vector pLex9 (pBTM116); N-terminal fusion partner

Common to all, as to assay: yeast two-hybrid (LexA bait, GAL4 AD prey), beta-galactosidase filter assay
Experiment [1] concerns the target T1, GAL4 transactivating domain fusion of the central region of human hnRNPL (amino acids 116 to 464), brain … (human, UniProt P14866 147-495, limits assumed).
T1 construct: Two-hybrid prey isolated in the screen; also called central portion of hnRNPL
T1 sequence: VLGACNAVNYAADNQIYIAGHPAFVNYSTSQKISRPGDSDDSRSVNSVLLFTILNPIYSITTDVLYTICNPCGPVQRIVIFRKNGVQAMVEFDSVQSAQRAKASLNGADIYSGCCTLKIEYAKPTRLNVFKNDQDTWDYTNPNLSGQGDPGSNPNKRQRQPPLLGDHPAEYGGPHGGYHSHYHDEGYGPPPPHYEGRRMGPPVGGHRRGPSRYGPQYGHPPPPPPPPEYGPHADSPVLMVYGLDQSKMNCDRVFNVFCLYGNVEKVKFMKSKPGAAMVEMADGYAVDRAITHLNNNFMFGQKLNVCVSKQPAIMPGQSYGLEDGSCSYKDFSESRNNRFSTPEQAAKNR

Experiment [2] deals with T2, GAL4 transactivating domain fusion of the FEBP1 (FE65 Binding PTB1 domain protein) fragment of 337 amino … (human, UniProt Q9UH62 44-379, limits assumed).
T2 construct: Two-hybrid prey isolated from a human brain cDNA library; a fragment of FEBP1, limits on the whole protein not known; also called fragment of the FEBP1 protein
T2 sequence: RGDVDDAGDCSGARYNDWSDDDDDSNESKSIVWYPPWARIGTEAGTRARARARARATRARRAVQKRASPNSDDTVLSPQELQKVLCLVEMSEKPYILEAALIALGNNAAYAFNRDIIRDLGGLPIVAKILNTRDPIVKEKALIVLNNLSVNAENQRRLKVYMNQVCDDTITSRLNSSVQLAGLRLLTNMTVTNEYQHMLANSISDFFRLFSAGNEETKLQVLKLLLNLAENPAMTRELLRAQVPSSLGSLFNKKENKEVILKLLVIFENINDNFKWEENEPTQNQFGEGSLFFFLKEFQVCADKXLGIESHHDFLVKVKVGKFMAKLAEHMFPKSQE

In experiment [3] the target is B1.

As for B1, the binding result in experiment [1] and in experiment [2] was “binds” each time.

B2: GAL4 transactivating domain fusion of the cytoplasmic domain of the APP protein, expressed from pGAD-App (other, UniProt P05067 723-770, looked up, not shown: large carriers)
chain: LKKKQYTSIHHGVVEVDAAVTPEERHLSKMQQNGYENPTYKFFEQMQN
notes: domain: cytoplasmic domain; Control prey; also called C-terminal domain of the APP
In the case of B2, in experiment [3], the binding result is “no binding”.
